From patent US7642244 (Hoffmann-La Roche, dated 2010)
Starred links: 1 amine or outer side, 2 acyl side, 3 side chain; linkers in the order of their positions; H or OH if unused. Non-standard residues stand in square brackets, D forms with d. Pqa = 4-oxo-6-(1-piperazinyl)-3(4H)-quinazoline-acetic acid, O=C(Cn1cnc2ccc(N3CCN([*:1])CC3)cc2c1=O)[*:2]; Phe(3,4-Cl2) = N[C@@H](Cc1ccc(Cl)c(Cl)c1)C(=O)O; PEG30,000 SSA = (PEG-30,000)CH2CH2NHCOCH2CH2CO; Phe(3-F) = N[C@@H](Cc1cccc(F)c1)C(=O)O; NMeR = CN[C@@H](CCCNC(=N)N)C(=O)O

T1: human NPY2 receptor (human, UniProt P49146 1-381)
T1 sequence (looked up): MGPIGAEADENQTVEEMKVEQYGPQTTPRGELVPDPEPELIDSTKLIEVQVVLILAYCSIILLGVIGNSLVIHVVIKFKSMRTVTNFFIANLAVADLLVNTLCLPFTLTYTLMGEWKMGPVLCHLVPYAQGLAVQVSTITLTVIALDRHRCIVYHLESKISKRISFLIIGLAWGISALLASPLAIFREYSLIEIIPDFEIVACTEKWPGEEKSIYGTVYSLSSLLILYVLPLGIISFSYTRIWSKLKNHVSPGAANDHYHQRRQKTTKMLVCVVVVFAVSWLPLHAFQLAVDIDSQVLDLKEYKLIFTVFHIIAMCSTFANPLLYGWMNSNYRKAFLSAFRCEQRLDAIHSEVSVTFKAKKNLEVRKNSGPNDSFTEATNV

T2: Y5R
T2 sequence (Q15761 whole entry, species assumed, looked up): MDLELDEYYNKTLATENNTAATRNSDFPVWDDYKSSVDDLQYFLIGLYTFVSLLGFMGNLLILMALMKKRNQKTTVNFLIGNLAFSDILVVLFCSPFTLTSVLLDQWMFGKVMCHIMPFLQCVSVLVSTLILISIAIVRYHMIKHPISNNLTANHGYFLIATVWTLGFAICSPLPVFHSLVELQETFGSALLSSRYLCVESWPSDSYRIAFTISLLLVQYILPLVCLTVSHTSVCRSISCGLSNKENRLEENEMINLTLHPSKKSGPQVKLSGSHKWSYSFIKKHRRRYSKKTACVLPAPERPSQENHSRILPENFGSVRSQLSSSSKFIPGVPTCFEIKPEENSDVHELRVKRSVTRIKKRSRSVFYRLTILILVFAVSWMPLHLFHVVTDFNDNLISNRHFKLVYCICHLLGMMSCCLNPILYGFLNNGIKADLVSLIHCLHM


What was measured:
Experiment in all cases: cell-based or functional assay
[1] = target: T1, human NPY2 receptor
[2] = target: Y4R
[3] = target: T2, Y5R
[4] = target: Y1R
Y1R, sequence (P25929 whole entry): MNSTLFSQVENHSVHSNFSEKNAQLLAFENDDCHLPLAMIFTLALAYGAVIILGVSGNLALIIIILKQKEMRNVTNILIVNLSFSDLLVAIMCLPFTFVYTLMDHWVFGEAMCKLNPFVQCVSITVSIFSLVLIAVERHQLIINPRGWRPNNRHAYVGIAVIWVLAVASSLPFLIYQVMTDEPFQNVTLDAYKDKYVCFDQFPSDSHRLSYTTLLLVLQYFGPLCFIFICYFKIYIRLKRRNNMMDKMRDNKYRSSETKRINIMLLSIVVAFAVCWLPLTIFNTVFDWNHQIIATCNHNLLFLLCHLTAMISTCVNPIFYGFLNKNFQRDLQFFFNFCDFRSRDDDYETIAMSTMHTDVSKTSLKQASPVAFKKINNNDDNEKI

Row | Binder | Y2R EC50 (nM) FLIPR [1] | Y2R EC50 (nM) cAMP [1] | Y4R EC50 (nM) FLIPR [2] | Y5R EC50 (nM) FLIPR [3] | Y1R EC50 (nM) FLIPR [4]
1 | IKXRHYLNWVTRQRY (HELM PEPTIDE1{[ac].I.K.[O=C(Cn1cnc2ccc(N3CCN([*:1])CC3)cc2c1=O)[*:2]].R.H.Y.L.N.W.V.T.R.Q.[meR].[O=C([C@H](Cc1c(F)cc(O)cc1F)N[*:1])[*:2]].[am]}$$$$V2.0; SMILES CC[C@H](C)[C@H](NC(C)=O)C(=O)N[C@@H](CCCCN)C(=O)N1CCN(c2ccc3ncn(CC(=O)N[C@@H](CCCNC(=N)N)C(=O)N[C@@H](Cc4c[nH]cn4)C(=O)N[C@@H](Cc4ccc(O)cc4)C(=O)N[C@@H](CC(C)C)C(=O)N[C@@H](CC(N)=O)C(=O)N[C@@H](Cc4c[nH]c5ccccc45)C(=O)N[C@H](C(=O)N[C@H](C(=O)N[C@@H](CCCNC(=N)N)C(=O)N[C@@H](CCC(N)=O)C(=O)N(C)[C@@H](CCCNC(=N)N)C(=O)N[C@@H](Cc4c(F)cc(O)cc4F)C(N)=O)[C@@H](C)O)C(C)C)c(=O)c3c2)CC1) [Ac-Ile-Lys-Pqa-Arg-His-Tyr-Leu-Asn-Trp-Val-Thr-Arg-Gln-(NMe)Arg-2,6-F2-Tyr-NH2] | 1.44 nM | 0.07 nM | > 5000 nM | 5810 nM | > 5000 nM
2 | H-IK[Pqa]RHYLNLVTRQ[NMeR][Phe(3,4-Cl2)]-NH2 [H-Ile-Lys-Pqa-Arg-His-Tyr-Leu-Asn-Leu-Val-Thr-Arg-Gln-(NMe)Arg-3,4-dichloro-Phe-NH2] | 4.03 nM | 1.47 nM |  |  | 
3 | IKXRHYLNLVTRQRX (Pqa as third residue; (NMe)Arg as penultimate residue; Cha (Cyclohexyl Alanine) as C-terminal residue; C-terminal amide (NH2)) [H-Ile-Lys-Pqa-Arg-His-Tyr-Leu-Asn-Leu-Val-Thr-Arg-Gln-(NMe)Arg-Cha-NH2] | 0.498 nM | 0.5 nM |  | 352 nM | > 5000 nM
4 | IKXRHYLNWVTRQRY (HELM PEPTIDE1{[O=C(CC1CCCCC1)[*:2]].I.K.[O=C(Cn1cnc2ccc(N3CCN([*:1])CC3)cc2c1=O)[*:2]].R.H.Y.L.N.W.V.T.R.Q.[meR].Y.[am]}$$$$V2.0; SMILES CC[C@H](C)[C@H](NC(=O)CC1CCCCC1)C(=O)N[C@@H](CCCCN)C(=O)N1CCN(c2ccc3ncn(CC(=O)N[C@@H](CCCNC(=N)N)C(=O)N[C@@H](Cc4c[nH]cn4)C(=O)N[C@@H](Cc4ccc(O)cc4)C(=O)N[C@@H](CC(C)C)C(=O)N[C@@H](CC(N)=O)C(=O)N[C@@H](Cc4c[nH]c5ccccc45)C(=O)N[C@H](C(=O)N[C@H](C(=O)N[C@@H](CCCNC(=N)N)C(=O)N[C@@H](CCC(N)=O)C(=O)N(C)[C@@H](CCCNC(=N)N)C(=O)N[C@@H](Cc4ccc(O)cc4)C(N)=O)[C@@H](C)O)C(C)C)c(=O)c3c2)CC1) [Cyclohexylacetyl-Ile-Lys-Pqa-Arg-His-Tyr-Leu-Asn-Trp-Val-Thr-Arg-Gln-(NMe)Arg-Tyr-NH2] | 1.67 nM | 1.37 nM | > 5000 nM | > 5000 nM | > 5000 nM
5 | H-IK[Pqa]RHYLNLVTRQ[NMeR][Phe(3-F)]-NH2 [H-Ile-Lys-Pqa-Arg-His-Tyr-Leu-Asn-Leu-Val-Thr-Arg-Gln-(NMe)Arg-3Fluoro-Phe-NH2] | 0.635 nM | 0.75 nM |  |  | 
6 | IKXRHYLNLVTRQRX (Pqa as third residue; (NMe)Arg as penultimate residue; 2-Nal (2-Naphthyl Alanine) as C-terminal residue; C-terminal amide (NH2)) [H-Ile-Lys-Pqa-Arg-His-Tyr-Leu-Asn-Leu-Val-Thr-Arg-Gln-(NMe)Arg-2-Nal-NH2] | 4.11 nM | 2.4 nM |  |  | 
7 | IKXRHYLNLVTRQRF (Pqa as third residue; (NMe)Arg as penultimate residue; 4 Methoxy-Phe as C-terminal residue; C-terminal amide (NH2)) [H-Ile-Lys-Pqa-Arg-His-Tyr-Leu-Asn-Leu-Val-Thr-Arg-Gln-(NMe)Arg-4 Methoxy-Phe-NH2] | 0.74 nM | 0.55 nM |  |  | 
8 | IKXRHYLNLVTRQRX (Pqa as third residue; (NMe)Arg as penultimate residue; 1-Nal (1-Naphthyl Alanine) as C-terminal residue; C-terminal amide (NH2)) [H-Ile-Lys-Pqa-Arg-His-Tyr-Leu-Asn-Leu-Val-Thr-Arg-Gln-(NMe)Arg-1-Nal-NH2] | 2.73 nM | 1.14 nM |  |  | 
9 | IXXRHYLNWVTRQRY (PEG30,000-SSA (PEG-CH2CH2NHCOCH2CH2CO-) on the N-terminal Ile; Nle as second residue; Pqa as third residue; (NMe)Arg as penultimate residue; C-terminal amide (NH2)) [((PEC30,000)CH2Cl2NHCOCH2CH2CO)Ile-Nle-Pqa-Arg-His-Tyr-Leu-Asn-Trp-Val-Thr-Arg-Gln-(NMe)Arg-Tyr-NH2] |  |  | > 5000 nM | > 5000 nM | > 5000 nM
10 | IKXRHYLNWVTRQRY (HELM PEPTIDE1{[CCCCC(=O)[*:2]].I.K.[O=C(Cn1cnc2ccc(N3CCN([*:1])CC3)cc2c1=O)[*:2]].R.H.Y.L.N.W.V.T.R.Q.[meR].Y.[am]}$$$$V2.0; SMILES CCCCC(=O)N[C@H](C(=O)N[C@@H](CCCCN)C(=O)N1CCN(c2ccc3ncn(CC(=O)N[C@@H](CCCNC(=N)N)C(=O)N[C@@H](Cc4c[nH]cn4)C(=O)N[C@@H](Cc4ccc(O)cc4)C(=O)N[C@@H](CC(C)C)C(=O)N[C@@H](CC(N)=O)C(=O)N[C@@H](Cc4c[nH]c5ccccc45)C(=O)N[C@H](C(=O)N[C@H](C(=O)N[C@@H](CCCNC(=N)N)C(=O)N[C@@H](CCC(N)=O)C(=O)N(C)[C@@H](CCCNC(=N)N)C(=O)N[C@@H](Cc4ccc(O)cc4)C(N)=O)[C@@H](C)O)C(C)C)c(=O)c3c2)CC1)[C@@H](C)CC) [Pentoyl-Ile-Lys-Pqa-Arg-His-Tyr-Leu-Asn-Trp-Val-Thr-Arg-Gln-(NMe)Arg-Tyr-NH2] | 0.873 nM | 0.51 nM | > 5000 nM | > 5000 nM | > 5000 nM
11 | H-IK(PEG30,000 SSA)[Pqa]RHYLNWVTRQ[NMeR]Y-NH2 |  |  | > 5000 nM | > 5000 nM | > 5000 nM
